Data set [1] is described as follows: SP1 stability following exposure to SDS and heating. The format is physicochemical. How it is done: The stability of the SP1 complex in the presence of SDS was examined by incubating purified SP1 with SDS at different molar ratios and at different temperatures. Dissociation of the SP1 complex to monomers required a molar ratio greater than 600:1 (SDS:SP1-monomer) accompanied by boiling before loading onto the gel.

A short description of data set [2]: Doxorubicin complex formation and release (ultrafiltration, HPLC, SDS PAGE fluorescence). Format: binding. The settings on record: reducing conditions (DTT or GSH). Here is the method:
Pure wild type SP1 or Cys2 SP1 mutant (1.5 mg/ml in 20 mM Sodium Phosphate buffered, pH=6.8) were incubated overnight at room temp, with DOX 1 mg/ml in the presence of DTT (10 mM), with gentle rolling. Binding reaction was stopped by adding hydrogen peroxide (0.01%), followed by ultra filtration (using 30 kD cutoff filter) and extensive wash until follow-through become colorless. Optical density was measured at both 278 and 477 nm using nanodrop spectrophotometer. Note the dramatic effect of the reducing agent on drug binding by the Cys2 SP1, compared to the absence of effect on the wild type SP1.
FIG. 13 is a histogram illustrating the redox-dependent release of Doxorubicin by Cys2 SP1. Doxorubicin (DOX) was complexed within Cys2 SP1 as described in FIGS. 9-12 above. Release of the drug in the presence of 0, 2 and 20 mM GSH was measured by ultrafiltration and size exclusion HPLC analysis (detection at 228 and 475 nm);
FIG. 14 is a histogram illustrating the effect of oxidation on DOX complex formation by Cys2 SP1. Doxorubicin (DOX) was reacted with Cys2 SP1 and wild type SP1 as described in FIGS. 9-13 above. Oxidized protein indicates exposure to excess of H2O2 prior to treatment with GSH. DOX complex formation was measured by ultrafiltration and size exclusion HPLC analysis (detection at 228 and 475 nm). […] 1=the retentate; 2=the flow through; and 3=a DOX standard 20 μg/ml.
FIG. 17 is a photograph of a fluorescent PAGE analysis illustrating effective complex formation with DOX by Cys2 and SP1 fusion proteins. Recombinant wild type (lanes 1 and 2), Cys2 (lanes 3 and 4), and SP1 fusion proteins having additional N-terminal tumor specific peptide RGD (CRGD, SEQ ID NO:151; fusion protein is SEQ ID NO: 5)(lanes 5 and 6), or RGD in reverse order (RGDC, SEQ ID NO: 152; fusion protein is SEQ ID NO: 6)(lanes 7 and 8) were reacted with DOX to form complex as described in FIGS. 9-14 above, and then separated on SDS-PAGE with (lanes 2, 4, 6 and 8) or without (lanes 1, 3, 5 and 7) denaturation by boiling in LSB.
Ultrafiltration was used for the detection of complex formation with the water soluble ligands FA and DOX which have a distinctive absorption properties and can be determined by spectroscopic measurements. […] Several additional washing cycles remove all remaining free FA and DOX, and the ligand-SP1 complex remains in the retained fraction.
Size exclusion chromatography is a common method for separation of molecules of different sizes under mild conditions and was employed to test FA and DOX complex formation under mild conditions. SP1 is eluted from the column after 7 min and is detected at 278 nm only, and free FA is eluted from the column (TSK G3000 SWXL, Tosohaas) after 16 min and is detected at 490 nm. The SP1-FA and SP1-DOX complexes also eluted at the same time but is detected also at 490 and 475 nm, respectively. DOX/SP1 ratio is determine from the standard curve obtained in solution.
Reverse phase HPLC (RP-HPLC) analysis separates between free DOX, PXT, and SP1. Both compounds bind to the resin (C-18) and are eluted at different acetonitrile concentrations, and detected at both 278 and 225 nm (SP1), 225 nm (PTX) and 477 nm (DOX).
Pyrogen free Cys2 SP1 variant (SEQ ID NO:3) in 20 mM (Na Phosphate buffer pH-6.7) final 2 mg/ml was diluted with DOX solution (Teva, Israel) 1:2 dilution final 1 mg/ml. Where indicated, GSH was added, and the solution is mixed overnight. Where indicated (oxidized), H2O2 is added to 0.1%, buffer added to 3× volume, and the solution is sonicated (3×22 sec. 1:1 pulse/pause at 3% amplitude 0.5 min. pause, using a Vibra-Cell 750 W sonicator).

In data set [3] the test system is Human colon adenocarcinoma (HT-29) cells. Nature of the data set: In-vitro cytotoxicity in HT-29 cells. The following applies: HT-29 cells, dose inhibiting 50% of cell growth. Format: cell-based. The text has this:
FIGS. 24a and 24b are graphs illustrating the in-vitro cytotoxic effects of SP1-DOX complex. FIG. 24a—HT-29 cells cultured in 96 well microtiter plates were exposed to uncomplexed DOX (closed oval, magenta) or SP1-DOX complex (closed triangle, blue) prepared as described in FIGS. 9-15, at the indicated concentrations. FIG. 24b—HT-29 cells were exposed to uncomplexed SP1 (without DOX) (closed diamond, blue) or SP1-DOX complex (closed triangle, yellow) at indicated concentrations. Proportion of living cells was determined by MTT assay, and the IC50 was calculated.
HT-29 cells were prepared as in FIG. 24 above.
Human colon adenocarcinoma (HT-29) cells. The cells were grown in 50-ml flasks containing DMEM medium (Biological Industries, Bet Haemek), supplemented with 10% fetal calf serum, 1% glutamine and 1% Antibiotic-Antimicotic solution (Biolab, Israel). The cells were trypsinizated, and 2 ml medium containing 5×10^4 cells were plated in each well of a 6-wells plate. SP1, drugs or SP1-complexed with drugs was added at the indicated concentrations. The cells were incubated at 37° C. in a humidified atmosphere containing 5% CO2.After 48 hours the medium in the presence or absence of drugs was replaced in each well respectively, to maintain a constant supply of ingredients and drugs. After four days the medium was removed and the number of viable cells in the cultures was determined by spectroscopy.
The human colorectal adenocarcinoma cell line, HT-29, was used to evaluate the biological activity of the SP1-DOX complex, compared to that of the free drug and un-complexed SP1 protein. […] Thus, the SP1-DOX complex is at least as biologically active as free DOX.

Data set [4] is described as follows: Repetitive iv injections of SP1: toxicity, liver histopathology. Format: in vivo.
Method: 35 mg/Kg SP1 or PBS control were injected iv (tail vein) to C57B1 mail mice on days 0, 9, 16, 23, 37 and 53 (6 and 5 animals in the SP1 and PBS groups, respectively). 55 days past the first injection the animals were sacrificed and their livers were subjected to histopathology analysis.
The nature of data set [5]: Heat stability (no precipitation after heat treatment). The following applies: 10 min at 100° C. or 30 min at 85° C.

“wild type: stress related SP1 protein from aspen (Populus tremula), recombinant, SEQ ID NO:1”: in data set [1] (1734-fold SDS (1%), temperatures of 80° C. or lower), the “disassociation of the complex” value is listed as “did not cause significant disassociation of the complex”. Further, the “molar ratio (SDS:SP1-monomer) required for dissociation of the complex to monomers” value in data set [1] (accompanied by boiling before loading onto the gel) is “greater than 600”. The “state of SP1 on SDS-PAGE” value in data set [1] (without boiling, SDS ratio of 3467 to 1) is recorded as “remained as a complex”. The DOX complex formation result is listed as “much lower extent” in data set [2] and “no complexes are formed” in data set [2] (listed as wild type SP1). Further, the IC50 result in data set [3] (listed as SP1) was “inactive”; in data set [3] (listed as SP-1), “absence of cytotoxicity”. Also, the “animals without any pathological response” value in data set [4] (35 mg/Kg iv on days 0, 9, 16, 23, 37 and 53, up to 55 days) is reported as “Four out of six”. Moreover, the liver histopathology entry in data set [4] (55 days past the first injection) is on record as “appeared normal”. Moreover, the animals died entry in data set [4] (after 17 days, unknown reason) is given as “Two out of 6”. The Heat stability entry in data set [5] is “+”.
